Assay results published in the supplement of paper PMC9112550, “Optimization of the antimicrobial peptide Bac7 by deep mutational scanning” (BMC Biology, 2022).

System: Escherichia coli TOP10
Assay: shrunken log2 fold change of peptide-encoding DNA abundance (4.5 h post-induction vs induction); higher = less antimicrobial activity (less host growth inhibition)
Details: time post-induction: 4.5 h; library: site-saturation at positions 5, 18, 19, 20
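Also: peptides expressed intracellularly from a pBAD plasmid library in pooled LB shake-flask culture, induced with 0.3% L-arabinose, DNA abundance read by NGS, three biological replicates, DESeq2 with apeglm shrinkage.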

Row | Sequence | shrunken log2 fold change
1 | RRIRVRPPRLPRPRPRPMYWPRP | -0.0619
2 | RRIRVRPPRLPRPRPRPNCEPRP | 3.97
3 | RRIRVRPPRLPRPRPRPNDFPRP | -0.0485
4 | RRIRVRPPRLPRPRPRPNHEPRP | -0.547
5 | RRIRVRPPRLPRPRPRPNIPPRP | -0.463
6 | RRIRVRPPRLPRPRPRPNLVPRP | -0.2
7 | RRIRVRPPRLPRPRPRPNMGPRP | -0.11
8 | RRIRVRPPRLPRPRPRPNNCPRP | -0.0726
9 | RRIRVRPPRLPRPRPRPNPWPRP | -0.0698
10 | RRIRVRPPRLPRPRPRPNQSPRP | 0.00904
11 | RRIRVRPPRLPRPRPRPNRSPRP | -0.0169
12 | RRIRVRPPRLPRPRPRPNSDPRP | -0.429
13 | RRIRVRPPRLPRPRPRPNSPPRP | -0.271
14 | RRIRVRPPRLPRPRPRPNSRPRP | 0.00966
15 | RRIRVRPPRLPRPRPRPNSWPRP | 0.0957
16 | RRIRVRPPRLPRPRPRPNTEPRP | -0.665
17 | RRIRVRPPRLPRPRPRPNTIPRP | -0.571
18 | RRIRVRPPRLPRPRPRPNTRPRP | 0.02
19 | RRIRVRPPRLPRPRPRPNVRPRP | -0.0431
20 | RRIRVRPPRLPRPRPRPNYHPRP | -0.489
21 | RRIRVRPPRLPRPRPRPPCFPRP | 0.17
22 | RRIRVRPPRLPRPRPRPPCTPRP | -0.159
23 | RRIRVRPPRLPRPRPRPPDPPRP | 0.342
24 | RRIRVRPPRLPRPRPRPPEEPRP | 0.0908
25 | RRIRVRPPRLPRPRPRPPEIPRP | -0.0437

Row | Sequence | shrunken log2 fold change
26 | RRIRVRPPRLPRPRPRPPEKPRP | 0.0629
27 | RRIRVRPPRLPRPRPRPPEMPRP | 0.116
28 | RRIRVRPPRLPRPRPRPPESPRP | 0.201
29 | RRIRVRPPRLPRPRPRPPEYPRP | -0.225
30 | RRIRVRPPRLPRPRPRPPFGPRP | 0.298
31 | RRIRVRPPRLPRPRPRPPFWPRP | 0.46
32 | RRIRVRPPRLPRPRPRPPIIPRP | -0.222
33 | RRIRVRPPRLPRPRPRPPLWPRP | 0.646
34 | RRIRVRPPRLPRPRPRPPPKPRP | 1.11
35 | RRIRVRPPRLPRPRPRPPRNPRP | 0.343
36 | RRIRVRPPRLPRPRPRPPSHPRP | -0.0316
37 | RRIRVRPPRLPRPRPRPPVQPRP | 0.377
38 | RRIRVRPPRLPRPRPRPQDQPRP | 0.225
39 | RRIRVRPPRLPRPRPRPQDRPRP | 0.0443
40 | RRIRVRPPRLPRPRPRPQETPRP | 0.0431
41 | RRIRVRPPRLPRPRPRPQFVPRP | -0.122
42 | RRIRVRPPRLPRPRPRPQGDPRP | -0.0558
43 | RRIRVRPPRLPRPRPRPQIKPRP | -0.455
44 | RRIRVRPPRLPRPRPRPQIMPRP | -0.745
45 | RRIRVRPPRLPRPRPRPQKNPRP | -0.217
46 | RRIRVRPPRLPRPRPRPQLPPRP | -0.0715
47 | RRIRVRPPRLPRPRPRPQPPPRP | 0.298
48 | RRIRVRPPRLPRPRPRPQPTPRP | 0.408
49 | RRIRVRPPRLPRPRPRPQTHPRP | 0.01
50 | RRIRVRPPRLPRPRPRPQVLPRP | 0.00638

Row | Sequence | shrunken log2 fold change
51 | RRIRVRPPRLPRPRPRPQWHPRP | -0.311
52 | RRIRVRPPRLPRPRPRPQWKPRP | -0.207
53 | RRIRVRPPRLPRPRPRPQYDPRP | -0.729
54 | RRIRVRPPRLPRPRPRPRADPRP | 0.43
55 | RRIRVRPPRLPRPRPRPRAFPRP | 0.294
56 | RRIRVRPPRLPRPRPRPRCWPRP | 0.294
57 | RRIRVRPPRLPRPRPRPRDQPRP | -0.0604
58 | RRIRVRPPRLPRPRPRPREYPRP | 0.0223
59 | RRIRVRPPRLPRPRPRPRFIPRP | -0.318
60 | RRIRVRPPRLPRPRPRPRFKPRP | 0.107
61 | RRIRVRPPRLPRPRPRPRFVPRP | 0.12
62 | RRIRVRPPRLPRPRPRPRGKPRP | 0.252
63 | RRIRVRPPRLPRPRPRPRGTPRP | -0.164
64 | RRIRVRPPRLPRPRPRPRHYPRP | 0.645
65 | RRIRVRPPRLPRPRPRPRIVPRP | 0.166
66 | RRIRVRPPRLPRPRPRPRKFPRP | 0.0551
67 | RRIRVRPPRLPRPRPRPRLNPRP | -0.00875
68 | RRIRVRPPRLPRPRPRPRLTPRP | 0.169
69 | RRIRVRPPRLPRPRPRPRLVPRP | 1.56
70 | RRIRVRPPRLPRPRPRPRNHPRP | 0.0133
71 | RRIRVRPPRLPRPRPRPRNSPRP | 0.1
72 | RRIRVRPPRLPRPRPRPRPGPRP | 0.627
73 | RRIRVRPPRLPRPRPRPRRDPRP | 0.141
74 | RRIRVRPPRLPRPRPRPRRVPRP | 0.256
75 | RRIRVRPPRLPRPRPRPRRYPRP | -0.0486

Row | Sequence | shrunken log2 fold change
76 | RRIRVRPPRLPRPRPRPRVNPRP | -0.159
77 | RRIRVRPPRLPRPRPRPRVWPRP | 0.736
78 | RRIRVRPPRLPRPRPRPRWSPRP | 0.209
79 | RRIRVRPPRLPRPRPRPRWVPRP | 0.309
80 | RRIRVRPPRLPRPRPRPSAFPRP | 0.0827
81 | RRIRVRPPRLPRPRPRPSCGPRP | -0.113
82 | RRIRVRPPRLPRPRPRPSCSPRP | -0.338
83 | RRIRVRPPRLPRPRPRPSDIPRP | -0.965
84 | RRIRVRPPRLPRPRPRPSDSPRP | -0.4
85 | RRIRVRPPRLPRPRPRPSGEPRP | 0.0818
86 | RRIRVRPPRLPRPRPRPSGIPRP | -0.931
87 | RRIRVRPPRLPRPRPRPSIAPRP | -0.0218
88 | RRIRVRPPRLPRPRPRPSIKPRP | -0.552
89 | RRIRVRPPRLPRPRPRPSIVPRP | -0.364
90 | RRIRVRPPRLPRPRPRPSKHPRP | -0.538
91 | RRIRVRPPRLPRPRPRPSKKPRP | -0.0165
92 | RRIRVRPPRLPRPRPRPSKTPRP | -0.61
93 | RRIRVRPPRLPRPRPRPSLLPRP | -0.23
94 | RRIRVRPPRLPRPRPRPSLVPRP | 0.974
95 | RRIRVRPPRLPRPRPRPSMQPRP | -0.223
96 | RRIRVRPPRLPRPRPRPSMSPRP | -0.147
97 | RRIRVRPPRLPRPRPRPSNRPRP | -0.147
98 | RRIRVRPPRLPRPRPRPSRFPRP | -0.0691
99 | RRIRVRPPRLPRPRPRPSSAPRP | 0.0552
100 | RRIRVRPPRLPRPRPRPSSTPRP | -0.398

Row | Sequence | shrunken log2 fold change
101 | RRIRVRPPRLPRPRPRPSVVPRP | 0.00363
102 | RRIRVRPPRLPRPRPRPSWAPRP | 0.0598
103 | RRIRVRPPRLPRPRPRPSWPPRP | 0.493
104 | RRIRVRPPRLPRPRPRPSYDPRP | -0.576
105 | RRIRVRPPRLPRPRPRPSYGPRP | -0.369
106 | RRIRVRPPRLPRPRPRPTAQPRP | -0.113
107 | RRIRVRPPRLPRPRPRPTCSPRP | 0.19
108 | RRIRVRPPRLPRPRPRPTEEPRP | 0.0849
109 | RRIRVRPPRLPRPRPRPTEQPRP | 0.0304
110 | RRIRVRPPRLPRPRPRPTHAPRP | 0.285
111 | RRIRVRPPRLPRPRPRPTHKPRP | 0.333
112 | RRIRVRPPRLPRPRPRPTILPRP | -0.308
113 | RRIRVRPPRLPRPRPRPTKWPRP | 0.0808
114 | RRIRVRPPRLPRPRPRPTLQPRP | 0.0594
115 | RRIRVRPPRLPRPRPRPTMMPRP | -0.494
116 | RRIRVRPPRLPRPRPRPTMSPRP | -0.194
117 | RRIRVRPPRLPRPRPRPTNDPRP | 0.0333
118 | RRIRVRPPRLPRPRPRPTPCPRP | -0.147
119 | RRIRVRPPRLPRPRPRPTQLPRP | 0.504
120 | RRIRVRPPRLPRPRPRPTTRPRP | 0.293
121 | RRIRVRPPRLPRPRPRPTVEPRP | 0.195
122 | RRIRVRPPRLPRPRPRPTVNPRP | -0.171
123 | RRIRVRPPRLPRPRPRPTYIPRP | -0.51
124 | RRIRVRPPRLPRPRPRPTYSPRP | -0.0431
125 | RRIRVRPPRLPRPRPRPVAMPRP | 0.0876

Row | Sequence | shrunken log2 fold change
126 | RRIRVRPPRLPRPRPRPVEDPRP | -0.378
127 | RRIRVRPPRLPRPRPRPVEGPRP | 0.112
128 | RRIRVRPPRLPRPRPRPVERPRP | 0.0358
129 | RRIRVRPPRLPRPRPRPVFMPRP | -0.113
130 | RRIRVRPPRLPRPRPRPVGMPRP | -0.0289
131 | RRIRVRPPRLPRPRPRPVGNPRP | -0.129
132 | RRIRVRPPRLPRPRPRPVIAPRP | -0.0291
133 | RRIRVRPPRLPRPRPRPVIMPRP | -0.227
134 | RRIRVRPPRLPRPRPRPVIRPRP | -0.375
135 | RRIRVRPPRLPRPRPRPVLSPRP | -0.11
136 | RRIRVRPPRLPRPRPRPVNDPRP | -0.201
137 | RRIRVRPPRLPRPRPRPVNGPRP | 0.158
138 | RRIRVRPPRLPRPRPRPVPAPRP | 0.391
139 | RRIRVRPPRLPRPRPRPVPPPRP | 0.27
140 | RRIRVRPPRLPRPRPRPVPVPRP | 0.0573
141 | RRIRVRPPRLPRPRPRPVQLPRP | 0.258
142 | RRIRVRPPRLPRPRPRPVQPPRP | 0.114
143 | RRIRVRPPRLPRPRPRPVRNPRP | 0.105
144 | RRIRVRPPRLPRPRPRPVSIPRP | 0.126
145 | RRIRVRPPRLPRPRPRPVSNPRP | -0.0653
146 | RRIRVRPPRLPRPRPRPVTAPRP | -0.0594
147 | RRIRVRPPRLPRPRPRPVTDPRP | -0.171
148 | RRIRVRPPRLPRPRPRPWFEPRP | -0.313
149 | RRIRVRPPRLPRPRPRPWGPPRP | -0.164
150 | RRIRVRPPRLPRPRPRPWGTPRP | -0.402
